Laboratory results: publication PMC9482650, “Quantitative fragmentomics allow affinity mapping of interactomes” (Nature Communications, 2022)
Blank lines part the entries; values can stand above or below the binder they belong to.

Columns and labels:
Assay in all cases: holdup assay
Set-up in all cases: key: below the threshold = too weak to quantify, mostly under pKd 3.1 to 4
FRMPD2_2, Q68DX3 = target: FRMPD2_2, Q68DX3
TIAM2, Q8IVF5 = target: T1, TIAM2, Q8IVF5
T1 sequence (Q8IVF5 885-986, limits assumed, looked up): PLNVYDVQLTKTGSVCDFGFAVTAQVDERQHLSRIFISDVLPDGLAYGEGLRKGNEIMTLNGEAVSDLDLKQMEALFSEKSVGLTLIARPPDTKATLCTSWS

LNX2_2, Q8N448 = target: T2, LNX2_2, Q8N448
T2 sequence (Q8N448 334-432, limits assumed, looked up): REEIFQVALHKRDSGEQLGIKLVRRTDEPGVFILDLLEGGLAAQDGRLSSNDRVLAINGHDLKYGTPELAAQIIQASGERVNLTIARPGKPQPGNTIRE

SCRIB_2, Q14160 = target: SCRIB_2, Q14160
SCRIB_2, Q14160, sequence (Q14160 857-960): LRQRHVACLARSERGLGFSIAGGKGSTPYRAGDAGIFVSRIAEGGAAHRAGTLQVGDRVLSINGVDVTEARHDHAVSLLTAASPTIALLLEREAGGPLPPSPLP

TJP1_2, Q07157 = target: TJP1_2, Q07157
TJP1_2, Q07157, sequence (Q07157 181-274): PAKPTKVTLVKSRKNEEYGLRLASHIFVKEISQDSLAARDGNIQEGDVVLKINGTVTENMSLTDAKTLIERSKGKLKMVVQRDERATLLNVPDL

FRMPD2_1, Q68DX3 = target: FRMPD2_1, Q68DX3
FRMPD2_1, Q68DX3, sequence (Q68DX3 770-861): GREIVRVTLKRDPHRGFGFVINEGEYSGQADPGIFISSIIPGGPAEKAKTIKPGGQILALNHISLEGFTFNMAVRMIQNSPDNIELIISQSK

PARD3_3, Q8TEW0 = target: PARD3_3, Q8TEW0
PARD3_3, Q8TEW0, sequence (Q8TEW0 582-685): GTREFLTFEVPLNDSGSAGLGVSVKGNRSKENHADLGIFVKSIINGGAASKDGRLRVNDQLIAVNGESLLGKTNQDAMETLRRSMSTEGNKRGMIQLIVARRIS

DLG4_2, P78352 = target: DLG4_2, P78352
DLG4_2, P78352, sequence (P78352 155-259): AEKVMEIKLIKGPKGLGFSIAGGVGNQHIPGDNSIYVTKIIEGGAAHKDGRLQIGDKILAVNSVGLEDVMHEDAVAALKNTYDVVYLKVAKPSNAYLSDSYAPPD

GRID2IP_1, A4D2P6 = target: GRID2IP_1, A4D2P6
GRID2IP_1, A4D2P6, sequence (A4D2P6 1-87): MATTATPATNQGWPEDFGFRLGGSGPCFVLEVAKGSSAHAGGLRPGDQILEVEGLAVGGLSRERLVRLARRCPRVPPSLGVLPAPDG

SNTG2, Q9NY99 = target: T3, SNTG2, Q9NY99
T3 sequence (Q9NY99 68-166, limits assumed, looked up): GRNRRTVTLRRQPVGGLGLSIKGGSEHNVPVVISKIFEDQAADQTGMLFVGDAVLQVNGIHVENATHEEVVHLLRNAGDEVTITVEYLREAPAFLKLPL

NOS1, P29475 = target: NOS1, P29475
NOS1, P29475, sequence (P29475 9-101): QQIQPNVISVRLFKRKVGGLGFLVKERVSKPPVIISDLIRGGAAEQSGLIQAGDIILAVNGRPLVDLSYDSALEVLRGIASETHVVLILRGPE

DLG5_1, Q8TDM6 = target: DLG5_1, Q8TDM6
DLG5_1, Q8TDM6, sequence (Q8TDM6 617-713): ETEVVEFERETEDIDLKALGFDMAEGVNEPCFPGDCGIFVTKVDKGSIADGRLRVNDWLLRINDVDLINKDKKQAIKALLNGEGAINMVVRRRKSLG

MAGI2_3, Q86UL8 = target: MAGI2_3, Q86UL8
MAGI2_3, Q86UL8, sequence (Q86UL8 600-682): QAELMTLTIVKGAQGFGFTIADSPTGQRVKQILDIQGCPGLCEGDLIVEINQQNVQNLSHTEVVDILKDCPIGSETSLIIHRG

GRIP1_5, Q9Y3R0 = target: T4, GRIP1_5, Q9Y3R0
T4 sequence (Q9Y3R0 568-668, limits assumed, looked up): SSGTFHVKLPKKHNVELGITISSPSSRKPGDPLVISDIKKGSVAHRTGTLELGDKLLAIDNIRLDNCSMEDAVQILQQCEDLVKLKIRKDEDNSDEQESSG

SNTG1, Q9NSN8 = target: T5, SNTG1, Q9NSN8
T5 sequence (Q9NSN8 52-150, limits assumed, looked up): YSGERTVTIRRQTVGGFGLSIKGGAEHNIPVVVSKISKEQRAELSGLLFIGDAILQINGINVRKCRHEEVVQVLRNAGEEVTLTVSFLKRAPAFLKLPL

SNX27, Q96L92 = target: SNX27, Q96L92
MAGI2_2, Q86UL8 = target: MAGI2_2, Q86UL8
MAGI2_2, Q86UL8, sequence (Q86UL8 410-522): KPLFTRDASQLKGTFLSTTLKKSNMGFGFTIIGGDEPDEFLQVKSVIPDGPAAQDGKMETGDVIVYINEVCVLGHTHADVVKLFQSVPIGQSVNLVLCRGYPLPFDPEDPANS

MPDZ_12, O75970 = target: T6, MPDZ_12, O75970
T6 sequence (O75970 1857-1958, limits assumed, looked up): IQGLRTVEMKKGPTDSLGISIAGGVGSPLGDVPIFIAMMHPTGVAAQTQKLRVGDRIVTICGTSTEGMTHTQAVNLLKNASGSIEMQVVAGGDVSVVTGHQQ

GRID2IP_2, A4D2P6 = target: GRID2IP_2, A4D2P6
GRID2IP_2, A4D2P6, sequence (A4D2P6 272-370): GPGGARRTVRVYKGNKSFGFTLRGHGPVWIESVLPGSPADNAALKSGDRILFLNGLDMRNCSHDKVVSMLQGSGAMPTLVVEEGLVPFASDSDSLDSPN

SYNJ2BP, P57105 = target: T7, SYNJ2BP, P57105
T7 sequence (P57105 8-110, limits assumed, looked up): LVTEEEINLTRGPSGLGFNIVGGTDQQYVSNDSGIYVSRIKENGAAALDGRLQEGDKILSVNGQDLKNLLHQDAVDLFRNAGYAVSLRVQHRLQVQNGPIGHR

DLG4_3, P78352 = target: DLG4_3, P78352
DLG4_3, P78352, sequence (P78352 306-403): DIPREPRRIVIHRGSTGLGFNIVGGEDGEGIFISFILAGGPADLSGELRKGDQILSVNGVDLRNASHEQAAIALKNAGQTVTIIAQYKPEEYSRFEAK

LDB3, O75112 = target: LDB3, O75112
LDB3, O75112, sequence (O75112 1-94): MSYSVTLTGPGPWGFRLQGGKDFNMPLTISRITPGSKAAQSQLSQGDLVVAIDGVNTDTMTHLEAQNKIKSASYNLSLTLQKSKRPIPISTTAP

TX1BP3, O14907 = target: T8, TX1BP3, O14907
T8 sequence (O14907 10-122, limits assumed, looked up): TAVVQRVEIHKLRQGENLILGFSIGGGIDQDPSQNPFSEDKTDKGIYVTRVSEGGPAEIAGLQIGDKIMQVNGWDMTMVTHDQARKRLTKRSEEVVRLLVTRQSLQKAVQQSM

MAGI3_2, Q5TCQ9 = target: MAGI3_2, Q5TCQ9
MAGI3_2, Q5TCQ9, sequence (Q5TCQ9 398-503): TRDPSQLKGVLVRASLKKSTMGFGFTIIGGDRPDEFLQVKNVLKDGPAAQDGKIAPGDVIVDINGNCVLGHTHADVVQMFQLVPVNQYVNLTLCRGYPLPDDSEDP

PDZRN3_1, Q9UPQ7 = target: T9, PDZRN3_1, Q9UPQ7
T9 sequence (Q9UPQ7 244-349, limits assumed, looked up): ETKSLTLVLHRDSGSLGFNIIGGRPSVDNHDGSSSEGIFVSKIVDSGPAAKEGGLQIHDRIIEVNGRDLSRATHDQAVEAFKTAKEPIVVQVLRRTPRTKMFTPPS

MAGI2_5, Q86UL8 = target: MAGI2_5, Q86UL8
MAGI2_5, Q86UL8, sequence (Q86UL8 915-1017): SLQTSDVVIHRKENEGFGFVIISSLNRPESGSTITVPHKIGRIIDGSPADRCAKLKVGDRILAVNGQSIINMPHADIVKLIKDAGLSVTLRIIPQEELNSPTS

IL16_1, Q14005 = target: IL16_1, Q14005
IL16_1, Q14005, sequence (Q14005 210-306): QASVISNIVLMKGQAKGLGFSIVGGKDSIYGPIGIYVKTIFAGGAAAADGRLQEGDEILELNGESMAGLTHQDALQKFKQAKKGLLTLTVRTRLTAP

NHERF3_4, Q5T2W1 = target: T10, NHERF3_4, Q5T2W1
T10 sequence (Q5T2W1 373-468, limits assumed, looked up): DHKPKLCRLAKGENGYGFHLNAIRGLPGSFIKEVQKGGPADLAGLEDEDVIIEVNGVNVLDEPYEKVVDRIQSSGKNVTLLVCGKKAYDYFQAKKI

[1] = plain residues with an end cap or a label only (N-terminal biotin on a linker: ahx)
[2] = plain residues with an end cap or a label only (N-terminal biotin on a linker: ttds)

FRMPD2_2, Q68DX3, sequence (Q68DX3 944-1038): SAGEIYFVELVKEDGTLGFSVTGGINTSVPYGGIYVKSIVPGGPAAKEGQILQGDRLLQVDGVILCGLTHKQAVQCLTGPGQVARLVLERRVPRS

- pKd (FRMPD2_2, Q68DX3; [1]): 4.61
- pKd (TIAM2, Q8IVF5; [1]): below the threshold
- pKd (LNX2_2, Q8N448; [1]): 4.56
- pKd (SCRIB_2, Q14160; [1]): 4.33
- pKd (TJP1_2, Q07157; [1]): below the threshold
- pKd (FRMPD2_1, Q68DX3; [1]): below the threshold
- pKd (PARD3_3, Q8TEW0; [1]): below the threshold
- pKd (DLG4_2, P78352; [1]): 4.98
- pKd (GRID2IP_1, A4D2P6; [1]): below the threshold
- pKd (SNTG2, Q9NY99; [1]): 3.59
- pKd (NOS1, P29475; [1]): 3.68
- pKd (DLG5_1, Q8TDM6; [1]): below the threshold
- pKd (MAGI2_3, Q86UL8; [1]): 4.31
- pKd (GRIP1_5, Q9Y3R0; [1]): below the threshold
- pKd (SNTG1, Q9NSN8; [1]): 4.23
- pKd (SNX27, Q96L92; [1]): 5.52
- pKd (MAGI2_2, Q86UL8; [1]): 4.18
- pKd (MPDZ_12, O75970; [1]): 3.63
- pKd (GRID2IP_2, A4D2P6; [1]): 4.41
- pKd (SYNJ2BP, P57105; [1]): 4.81
- pKd (DLG4_3, P78352; [1]): 4.5
- pKd (LDB3, O75112; [1]): below the threshold
- pKd (TX1BP3, O14907; [1]): 5.53
- pKd (MAGI3_2, Q5TCQ9; [1]): 4.53
- pKd (PDZRN3_1, Q9UPQ7; [1]): below the threshold
- pKd (MAGI2_5, Q86UL8; [1]): 4.63
- pKd (IL16_1, Q14005; [1]): 3.58
- pKd (NHERF3_4, Q5T2W1; [1]): below the threshold
Binder: HSGSYLVTSV [APC, P25054]

- pKd (FRMPD2_2, Q68DX3; [2]): below the threshold
- pKd (TIAM2, Q8IVF5; [2]): below the threshold
- pKd (LNX2_2, Q8N448; [2]): below the threshold
- pKd (SCRIB_2, Q14160; [2]): below the threshold
- pKd (TJP1_2, Q07157; [2]): below the threshold
- pKd (FRMPD2_1, Q68DX3; [2]): below the threshold
- pKd (PARD3_3, Q8TEW0; [2]): below the threshold
- pKd (DLG4_2, P78352; [2]): below the threshold
- pKd (GRID2IP_1, A4D2P6; [2]): below the threshold
- pKd (SNTG2, Q9NY99; [2]): below the threshold
- pKd (NOS1, P29475; [2]): below the threshold
- pKd (DLG5_1, Q8TDM6; [2]): below the threshold
- pKd (MAGI2_3, Q86UL8; [2]): below the threshold
- pKd (GRIP1_5, Q9Y3R0; [2]): below the threshold
- pKd (SNTG1, Q9NSN8; [2]): below the threshold
- pKd (SNX27, Q96L92; [2]): below the threshold
- pKd (MAGI2_2, Q86UL8; [2]): below the threshold
- pKd (MPDZ_12, O75970; [2]): below the threshold
- pKd (GRID2IP_2, A4D2P6; [2]): below the threshold
- pKd (SYNJ2BP, P57105; [2]): 3.55
- pKd (DLG4_3, P78352; [2]): below the threshold
- pKd (LDB3, O75112; [2]): below the threshold
- pKd (TX1BP3, O14907; [2]): 4.03
- pKd (MAGI3_2, Q5TCQ9; [2]): below the threshold
- pKd (PDZRN3_1, Q9UPQ7; [2]): below the threshold
- pKd (MAGI2_5, Q86UL8; [2]): below the threshold
- pKd (IL16_1, Q14005; [2]): below the threshold
- pKd (NHERF3_4, Q5T2W1; [2]): below the threshold
Binder: TGDTLEKFVEGL [CBP, Q92793]
